Experimental data from patent US20240376170A1 (BRIGHT PEAK THERAPEUTICS, published 2024).
Bridges are numbered along the chain shown (N, C = ends). Primed or numbered codes have the meaning given here. [ ]: non-standard residue; d: D form. Ygp = O-(8x polyethylene glycol-amino)-tyrosine (Tyr, amino-capped PEG8); Yn3 = O-(9x polyethylene glycol-azido)-tyrosine (Tyr, azide-capped PEG9); Ygp(3) = O-(PEG8-amino)-tyrosine; Yn3(3) = O-(PEG9-azido)-tyrosine; PEG4′ = 4x polyethylene glycol; PEG9′ = 9x polyethylene glycol; hSer = N[C@@H](CCO)C(=O)O; Nle = CCCC[C@H](N)C(=O)O

T1: IL-2 receptor βγ complex on human T cells (human, UniProt P14784 27-551; P31785 23-369)
T1 sequence (looked up) 1: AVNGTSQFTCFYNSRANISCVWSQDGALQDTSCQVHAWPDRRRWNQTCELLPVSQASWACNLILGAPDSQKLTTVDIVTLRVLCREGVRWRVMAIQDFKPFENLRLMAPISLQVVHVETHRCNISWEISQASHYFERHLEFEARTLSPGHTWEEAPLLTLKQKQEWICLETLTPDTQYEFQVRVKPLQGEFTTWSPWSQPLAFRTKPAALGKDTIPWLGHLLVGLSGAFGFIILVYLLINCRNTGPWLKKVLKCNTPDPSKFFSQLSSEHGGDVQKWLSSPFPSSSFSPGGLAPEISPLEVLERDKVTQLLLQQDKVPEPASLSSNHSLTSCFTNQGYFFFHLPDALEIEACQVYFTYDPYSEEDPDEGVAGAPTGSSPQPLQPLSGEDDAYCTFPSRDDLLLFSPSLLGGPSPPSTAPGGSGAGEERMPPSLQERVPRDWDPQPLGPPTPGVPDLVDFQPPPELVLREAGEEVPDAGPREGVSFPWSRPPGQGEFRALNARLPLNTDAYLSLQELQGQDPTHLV
T1 sequence (looked up) 2: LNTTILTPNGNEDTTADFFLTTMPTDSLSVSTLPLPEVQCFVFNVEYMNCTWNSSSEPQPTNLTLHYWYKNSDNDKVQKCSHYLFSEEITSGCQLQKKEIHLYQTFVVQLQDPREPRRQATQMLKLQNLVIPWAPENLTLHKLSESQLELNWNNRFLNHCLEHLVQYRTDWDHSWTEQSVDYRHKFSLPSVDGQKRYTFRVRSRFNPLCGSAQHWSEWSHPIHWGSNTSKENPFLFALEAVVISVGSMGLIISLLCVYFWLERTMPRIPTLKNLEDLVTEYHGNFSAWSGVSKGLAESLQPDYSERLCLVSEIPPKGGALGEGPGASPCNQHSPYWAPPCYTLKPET

T2: recombinant human IL-2 receptor beta containing a His-tag and Avi-tag (human, UniProt P14784 27-239)
T2 construct: Bought; attached to the SAX2 biosensor; also called CD122; IL-2R β; not shown: His-tag and Avi-tag
T2 sequence (looked up): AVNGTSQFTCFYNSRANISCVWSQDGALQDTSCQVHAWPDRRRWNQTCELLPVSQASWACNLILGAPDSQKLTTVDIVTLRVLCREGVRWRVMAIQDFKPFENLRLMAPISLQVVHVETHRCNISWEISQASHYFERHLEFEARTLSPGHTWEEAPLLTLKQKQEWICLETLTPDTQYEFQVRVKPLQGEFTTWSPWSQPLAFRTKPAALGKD

T3: Avi-tag Fc with human IL-2R beta and IL-2R gamma attached (Acrobiosystems ACRB-ILG-H82F3-25UG) (human, UniProt P14784 27-239; P31785 23-262)
T3 construct: Bought; attached to the SAX2 biosensor; also called CD122 CD132; IL-2R βγ; not shown: Fc and Avi-tag
T3 sequence (looked up) 1: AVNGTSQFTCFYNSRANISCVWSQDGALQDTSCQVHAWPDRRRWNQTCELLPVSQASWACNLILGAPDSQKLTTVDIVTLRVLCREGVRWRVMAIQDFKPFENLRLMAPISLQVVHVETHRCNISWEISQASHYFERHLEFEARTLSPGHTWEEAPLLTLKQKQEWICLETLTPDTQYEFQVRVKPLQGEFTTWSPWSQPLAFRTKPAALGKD
T3 sequence (looked up) 2: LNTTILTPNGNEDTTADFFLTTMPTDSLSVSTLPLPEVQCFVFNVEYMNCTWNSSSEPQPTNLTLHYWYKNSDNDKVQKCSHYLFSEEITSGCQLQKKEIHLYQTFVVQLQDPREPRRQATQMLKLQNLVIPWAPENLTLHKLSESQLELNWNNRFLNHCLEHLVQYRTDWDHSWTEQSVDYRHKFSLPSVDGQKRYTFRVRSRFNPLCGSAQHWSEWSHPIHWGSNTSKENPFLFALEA

T4: IL-2Rβγ on HEK-Blue IL-2Rβγ reporter cells (InvivoGen) (UniProt P14784 27-551; P31785 23-369, limits assumed)
T4 sequence (looked up) 1: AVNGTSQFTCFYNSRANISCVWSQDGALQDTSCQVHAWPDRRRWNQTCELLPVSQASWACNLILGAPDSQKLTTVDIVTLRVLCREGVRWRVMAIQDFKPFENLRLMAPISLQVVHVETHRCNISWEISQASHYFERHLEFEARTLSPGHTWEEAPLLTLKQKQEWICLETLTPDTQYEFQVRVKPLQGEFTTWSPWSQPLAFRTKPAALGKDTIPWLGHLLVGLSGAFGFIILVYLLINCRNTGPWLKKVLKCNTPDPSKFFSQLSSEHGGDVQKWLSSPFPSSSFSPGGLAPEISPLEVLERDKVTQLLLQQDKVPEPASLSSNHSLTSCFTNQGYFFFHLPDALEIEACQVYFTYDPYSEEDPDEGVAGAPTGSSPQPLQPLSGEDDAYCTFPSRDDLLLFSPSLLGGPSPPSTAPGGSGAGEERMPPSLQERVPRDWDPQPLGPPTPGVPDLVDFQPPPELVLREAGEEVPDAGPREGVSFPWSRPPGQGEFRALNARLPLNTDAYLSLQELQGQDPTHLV
T4 sequence (looked up) 2: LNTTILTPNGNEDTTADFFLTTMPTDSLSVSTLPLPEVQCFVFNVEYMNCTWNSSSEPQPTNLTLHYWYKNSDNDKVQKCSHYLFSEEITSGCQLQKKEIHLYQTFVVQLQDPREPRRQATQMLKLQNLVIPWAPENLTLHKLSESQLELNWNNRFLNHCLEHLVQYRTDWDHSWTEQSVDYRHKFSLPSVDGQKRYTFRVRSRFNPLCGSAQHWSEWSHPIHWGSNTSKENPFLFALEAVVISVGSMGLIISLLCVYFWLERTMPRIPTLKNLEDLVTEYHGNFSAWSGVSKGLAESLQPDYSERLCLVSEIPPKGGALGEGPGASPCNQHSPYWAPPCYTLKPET

B1: CMP-150, MMP2 cleaved (ligand)
chain: APTSSSTKKTQLQLEHLLLDLK[Nle]ILNGINNYKNPKLTR[Nle]L[hSer][Yn3(3)]KF[Ygp(3)][Nle]PKKATELKHLQCLEEELKPLEEVL[hSer]LAQSKNFHLRPRDLISNINVIVLELKGSETTF[hSer]CEYADETATIVEFLNRWITFSQSIISTLT
modifications: not fully specified; also: further groups not given here
B2: CMP-146 (ligand)
chain: APTSSSTKKTKLQLEHLLLDLQ[Nle]ILNGINNYKNPKLTR[Nle]L[hSer][Yn3(3)]KF[Ygp(3)][Nle]PKKATELKHLQCLEEELKPLEEVL[hSer]LAQSKNFHLRPRDLISNINVIVLELKGSETTF[hSer]CEYADETATIVEFLNRWITFSQSIISTLT
modifications: also: further groups not given here
B3: CMP-148 (ligand)
chain: APTSSSTKKTQLQLKHLLLDLQ[Nle]ILNGINNYKNPKLTR[Nle]L[hSer][Yn3(3)]KF[Ygp(3)][Nle]PKKATELKHLQCLEEELKPLEEVL[hSer]LAQSKNFHLRPRDLISNINVIVLELKGSETTF[hSer]CEYADETATIVEFLNRWITFSQSIISTLT
modifications: also: further groups not given here
B4: CMP-138 (ligand)
chain: [PEG4′]SGGPGPAGMKGLPGS[PEG4′]APTSSSTKKTQLQLEHLLLDLQ[Nle]ILNGIENYKNPKLTR[Nle]L[hSer][Yn3(3)]KF[Ygp(3)][Nle]PKKATELKHLQCLEEELKPLEEVL[hSer]LAQSKNFHLRPRDLISNINVIVLELKGSETTF[hSer]CEYADETATIVEFLNRWITFSQSIISTLT
modifications: bridge (positions not given here); not fully specified (bridges); numbers in words are those of the source; also: Cys58-Cys105 disulfide expected from oxidative folding
B5: CMP-319 (ligand)
chain: RGRRVANLVGAPTSSSTKKTQLQLEHLLLDLQEILNGINNYKNPKLTR[Nle]L[hSer][Yn3]KF[Ygp][Nle]PKKATELKHLQCLEEELKPLEEVL[hSer]LAQSKNFHLRPRDLISNINVIVLELKGSETTF[hSer]CEYADETATIVEFLNRWITFSQSIISTLT
modifications: lactam N-33; ends not checked
B6: CMP-136 (ligand)
chain: [PEG9′]PLGLAG[PEG9′]APTSSSTKKTQLQLEHLLLDLQ[Nle]ILNGIENYKNPKLTR[Nle]L[hSer][Yn3]KF[Ygp][Nle]PKKATELKHLQCLEEELKPLEEVL[hSer]LAQSKNFHLRPRDLISNINVIVLELKGSETTF[hSer]CEYADETATIVEFLNRWITFSQSIISTLT
modifications: bridge N-37; not fully specified (bridges)
B7: CMP-146, MMP2 cleaved (ligand)
chain: APTSSSTKKTKLQLEHLLLDLQ[Nle]ILNGINNYKNPKLTR[Nle]L[hSer][Yn3(3)]KF[Ygp(3)][Nle]PKKATELKHLQCLEEELKPLEEVL[hSer]LAQSKNFHLRPRDLISNINVIVLELKGSETTF[hSer]CEYADETATIVEFLNRWITFSQSIISTLT
modifications: also: MMP2-cleaved form, remnant not given here, Lys11 side chain attached moiety

Assays:
[1] = molecular target: T1, IL-2 receptor βγ complex on human T …; assay: cell-based or functional assay
[2] = molecular target: T2, recombinant human IL-2 receptor beta …; assay: BLI (Octet R8), receptor on SAX2 sensor
Procedure: (§1) Bilayer interferometry (BLI) assays were used to measure the binding constants between activatable IL-2 polypeptides (and activated versions thereof) to IL-2 receptor subunits or receptor complexes. BLI assays were conducted on an Octet® R8 instrument. Assay plates were 96 well, polypropylene, F-bottom (chimney well), black microplates (Greiner Bio-one, Cat. No: 655209). The biosensors were Octet® SAX2 (Sartorius, Cat. No: 18-5136). The assay buffer was 1X Kinetic Buffer (Sartorius, Cat. no: 18-5136) or Phosphate Buffered Saline (PBS) that contained 0.02% (v: v) Tween 20 (Polysorbate 20) and 0.1% (w/v) bovine serum albumin (BSA). The sensor was regenerated between measurements in 10 mM glycine pH 2.7 buffer.
(§2) Sensor attached receptors were either recombinant human IL-2 receptor beta containing a His-tag and Avi-tag™ (R&D Systems™) or an Avi-tag™ Fc with human IL-2R beta and IL-2R gamma attached (Acrobiosystems Cat. no: ACRB-ILG-H₈₂F3-25UG). Receptors were reconstituted from lyophilized powder to 500 μg/ml in PBS. Analytes were diluted in Kinetic buffer to 300 nM, then serially diluted to lower concentrations.

[3] = molecular target: T3, Avi-tag Fc with human IL-2R beta and …; assay: BLI (Octet R8), receptor on SAX2 sensor
Procedure: as §1, §2

[4] = molecular target: T4, IL-2Rβγ on HEK-Blue IL-2Rβγ reporter …; assay: cell-based or functional assay

Row | Binder | Average EC50, pSTAT5 Assay (T cells), MMP2 cleaved molecule [1] [nM] | Average EC50, pSTAT5 Assay (T cells), intact molecule [1] [nM] | Kd [2] [nM] | koff [2] [s⁻¹] | kon [2] [M⁻¹ s⁻¹] | Kd [3] [nM] | koff [3] [s⁻¹] | kon [3] [M⁻¹ s⁻¹] | Average EC50, HEK-Blue IL-2R (CD122+, CD132+) Reporter Assay, intact molecule [4] [nM]
1 | B1 | 0.45 | – | – | – | – | – | – | – | –
2 | B2 | – | 4.29 | – | – | – | – | – | – | –
3 | B3 | – | 3.57 | – | – | – | – | – | – | –
4 | B4 | – | – | 11.7 | 0.0105 | 898000 | 12.3 | 0.00284 | 232000 | –
5 | B5 | – | – | 59.5 | 0.0122 | 206000 | 9.19 | 0.000786 | 85500 | 1.05
6 | B6 | – | – | 8.44 | 0.00767 | 909000 | 12.6 | 0.00498 | 396000 | –
7 | B7 | 0.92 | – | – | – | – | – | – | – | –
